Key:
[1] = Purified SSL-1 mixed with B. braunii algal cell-free lysate, incorporation of radiolabeled FPP into botryococcene; type: biochemical, Botryococcus braunii; details: purified SSL-1 mixed with algal cell-free lysate
Description: FIG. 4 depicts the dependence of the squalene synthase-like-1 enzyme on algal lysate for botryococcene biosynthesis. […] The SSL-1 gene containing a 5′ terminal sequence coding for a hexa-histidine tag was over-expressed in E. coli and the corresponding enzyme purified by cobalt affinity chromatography according to the manufacturer (Sigma). B. braunii lysate was prepared from cells collected at the indicated stages of culture development according to the procedure described by Okada, S. et al. (Arch Biochem Biophys 422: 110-118) and 10 μg of lysate protein was used per assay. Assays were incubated at 37° C. for 1 h, then the reaction products extracted with hexane. Aliquots of the hexane extracts was separated by silica TLC and the radioactivity migrating to zones corresponding to authentic standards of botryococcene and squalene determined by scintillation counting. Data represents mean±s.e.m.
Typical enzyme assays were initiated by mixing aliquots of purified enzyme with 50 mM Mops, pH 7.3, 20 mM MgCl2, 2.5 mM 2-mercaptoethanol, 10 μM [1-^3H]-FPP (˜2×10^5 dpm total), and 2 mM NADPH in total reaction volume of 50 μl. Reactions were incubated at 37° C. for 1 h and then extracted with 100 μl n-hexane or 100 ul MTBE. […] The standards were visualized with iodine vapors and TLC zones corresponding to the standards were scrapped and analyzed by scintillation spectrometry. […]

[2] = Primary enzyme assay with 3H-FPP, PSPP content by acid phosphatase assay; type: biochemical; details: 20 μg enzyme, 40 μM 3H-FPP, 37° C., 1 h
Description: (§1) Two primary enzyme assays (500 μl) were set up with 20 μg of purified SSL-1 or Nicotiana benthamiana squalene synthase (TSS) plus 40 μM ^3H-FPP. The assays were incubated at 37° C. for 1 h, then extracted 3× with 500 μl water saturated 1-butanol, pooled, and evaporated under a stream of nitrogen gas. The white residue was resuspended in 50 μl of 25 mM NH4HCO3 in 70% ethanol (v/v). An aliquot of the resuspension was analyzed by the acid phosphatase assay (described in supplemental FIG. 4) and shown to consist of 45% and 40% PSPP for the SSL-1 and TSS primary incubations, respectively. […] It was calculated that 1 μl of each resuspension contained ˜150 pmoles of 3H-PSPP. […] For comparison, enzyme assays were also set up containing 3 μM ^3H-FPP, 2 mM NADPH and either 1 μg each of SSL-1 plus SSL-3, or SSL-1 plus SSL-2. Additional control assays contained 5 μM ^3H-FPP, 2 mM NADPH, and either 1 μg of SSL-3 or SSL-2. The reactions were incubated at 37° C. for 15 min, stopped by addition of 50 μl 0.5 M EDTA, and extracted with 100 μl n-hexane. Aliquots of the hexane extracts, along with standards of squalene and botryococcene, were separated by silica TLC using n-hexane as the developing solvent. Standards were visualized with iodine vapors and the corresponding zones were analyzed by scintillation spectroscopy. […]

[3] = Michaelis-Menten enzyme kinetics of the SSL-1 reaction (3H-FPP to PSPP); type: biochemical; details: after acid phosphatase dephosphorylation
Description: FIG. 5 depicts Michaelis-Menten enzyme kinetics of the SSL-1 reaction. Enzyme assays (50 μl) were set up as described in the methods section with purified SSL-1 (0.2-1.0 μg), 0.1% triton X-100, ±2 mM NADPH, and the indicated concentration of ^3H-FPP. Assays were incubated for 15 min at 37° C. and stopped by addition of 50 μl 0.5 M EDTA. The reactions were then extracted 3× with 200 μl water saturated 1-butanol and pooled in a 4 ml glass screw cap vial. […] The standards were visualized with iodine vapors and the zones corresponding to FOH (rf=0.65) and PSOH (rf=0.45) were scraped and analyzed by scintillation spectroscopy. […] The data was analyzed using the SigmaPlot Enzyme Kinetics 1.3 software. […]
Typical enzyme assays were initiated by mixing aliquots of purified enzyme with 50 mM Mops, pH 7.3, 20 mM MgCl2, 2.5 mM 2-mercaptoethanol, 10 μM [1-^3H]-FPP (˜2×10^5 dpm total), and 2 mM NADPH in total reaction volume of 50 μl. […] The standards were visualized with iodine vapors and TLC zones corresponding to the standards were scrapped and analyzed by scintillation spectrometry. […] Extracts were resuspended in 50 μl hexane and an aliquot analyzed by GC-MS with a Varian CP-3800 GC coupled to a Varian Saturn 2200 MS/MS (Varian Medical Systems) using a Supelco SLB-5 ms fused silica capillary column (30 m×0.25 mm×0.25 μM film thickness, Supelco). […]

[4] = Substrate specificity of SSL-2 (bisfarnesyl ether formation); type: biochemical; details: 37° C., 1 h
Description: The radioactivity incorporated in the zones corresponding to bisfarnesyl ether were determined by scintillation counting. Data represents mean±S.E.M.

[5] = Secondary enzyme assays of SSL-3 or SSL-2 with PSPP versus FPP; type: biochemical; details: 2 mM NADPH, 1 μg enzyme, 37° C., 15 min
Description: as §1

| Molecule | enhancement of NAD(P)H-dependent botryococcene biosynthesis [1] | PSPP share of reaction product of primary incubation [2] [%] | input radioactivity recovered as FOH and PSOH [3] | Bisfarnesyl ether formed ([4]; substrate 10 μM 1-3H-FPP) | Bisfarnesyl ether formed ([4]; substrate 10 μM 1-3H-farnesol) [pmoles /h · μg protein] | Bisfarnesyl ether formed ([4]; substrate 10 μM FPP + 10 μM 1-3H-farnesol) | biosynthesis from PSPP versus FPP [5] |
| --- | --- | --- | --- | --- | --- | --- | --- |
| Botryococcus braunii race B squalene synthase-like 1 (SSL-1), wild type, hexa-histidine tagged, SEQ ID NO: 2 (Botryococcus braunii) (protein) MTMHQDHGVMKDLVKHPNEFPYLLQLAATTYGSPAAPIPKEPDRAFCYNTLHTVSKGFPRFVMRLPQELQDPICIFYLLLRALDTVEDDMNLKSETKISLLRVFHEHCSDRNWSMKSDYGIYADLMERFPLVVSVLEKLPPATQQTFRENVKYMGNGMADFIDKQILTVDEYDLYCHYVAGSCGIAVTKVIVQFNLATPEADSYDFSNSLGLLLQKANIITDYNEDINEEPRPRMFWPQEIWGKYAEKLADFNEPENIDTAVKCLNHMVTDAMRHIEPSLKGMVYFTDKTVFRALALLLVTAFGHLSTLYNNPNVFKEKVRQRKGRIARLVMSSRNVPGLFRTCLKLANNFESRCKQETANDPTVAMTIKRLQSIQATCRDGLAKYDTPSGLKSFCAAPTPTK | up to 10 fold | 45 | greater than 95% |  |  |  |  |
| SSL-2: Botryococcus braunii race B squalene synthase-like 2 enzyme; bacterial form is truncated SSL-2-tr2 (protein) MVKLVEVLQHPDEIVPILQMLHKTYRAKRSYKDPGLAFCYGMLQRVSRSFSVVIQQLPDELRHPICVFYLILRALDTVEDDMNLPNEVKIPLLRTFHEHLFDRSWKLKCGYGPYVDLMENYPLVTDVFLTLSPGAQEVIRDSTRRMGNGMADFIGKDEVHSVAEYDLYCHYVAGLVGSAVAKIFVDSGLEKENLVAEVDLANNMGQFLQKTNVIRDYLEDINEEPAPRMFWPREIWGKYAQELADFKDPANEKAAVQCLNHMVTDALRHCEIGLNVIPLLQNIGILRSCLIPEVMGLRTLTLCYNNPQVFRGVVKMRRGETAKLFMSIYDKRSFYQTYLRLANELEAKCKGEASGDPMVATTLKHVHGIQKSCKAALSSKELLAKSGSALTDDPAIRLLLLVGVVAYFAYAFNLGDVRGEHGVRALGSILDLSQKGLAVASVALLLLVLLARSRLPLLTSASSKQ |  |  |  | 13.5 +/− 3.3 pmoles /h · μg protein | 0 | 16.3 +/− 0.4 pmoles /h · μg protein | efficiently catalyze the biosynthesis of squalene and botryococcene, respectively, from PSPP but not FPP |

From patent US8822187B1, “Polypeptides, nucleic acid molecules, and methods for synthesis of triterpenes” (University of Kentucky Research Foundation, priority 2011, dated 2014)
